{"source": "paper PMC11835246", "about": "“Capsid transfer of the retrotransposon Copia controls structural synaptic plasticity in Drosophila” (PLOS Biology, 2025)", "binders": {"B1": {"name": "Copia^Gag capsid protein (wild type), auto-processed from His6-SUMO-Copia^Gag+PR (natural protein)", "chain": "not shown", "notes": "Copia retrotransposon Gag (capsid CA, residues 1-186, and nucleocapsid NC, residues 186-270), Drosophila; product of auto-processing of the short spliced form Copia^Gag+PR, whose protease part is cut off in E. coli; Limits 1-270 put together from the stated CA (1-186) and NC (186-270) domains; the cleavage site between Gag and PR is not otherwise stated; Carries co-purified RNA unless this is …"}, "B2": {"name": "Copia^GagΔNC (domain or fragment)", "chain": "not shown", "notes": "Copia retrotransposon Gag, Drosophila, capsid (CA) region only; residue H186 mutated to a stop codon in the pSMT3_His6-SUMO-Copia^Gag+PR plasmid, so the chain ends at residue 185 and lacks the NC (Zn-finger) domain; also called Copia^gag-ΔNC variant; not shown: His6-SUMO, N-terminal, cleaved"}}, "key": {"[1]": {"target": "the molecule itself", "experiment": "negative-stain EM; purified Copia^Gag after removal of His6-SUMO, with co-purified RNA, 0.8 mg/ml, 1% uranyl acetate; capsid-like particles of 30 nm to more than 120 nm"}, "[2]": {"target": "B1", "experiment": "SEC; Superose 6 Increase 10/300 GL after overnight Ulp1 digestion; 25 mM HEPES pH 7.4, 150 mM NaCl, 10% glycerol, 100 uM ZnCl2, 500 mM imidazole, 2 mM 2-mercaptoethanol; assembled capsids elute at fraction 7, unassembled protein at fractions 24 to 26", "conditions": "both partners purified"}}, "data": [{"binder": "B1", "values": [{"measurement": "binding result", "setting": "[1]", "result": "binds"}]}, {"binder": "B2", "values": [{"measurement": "binding result", "setting": "[2]", "result": "binds"}]}]}
